According to patent US20170204167A1 (INSTITUTE FOR RESEARCH IN BIOMEDICINE, published 2017):

How the values were obtained:
[1] = molecular target: T1, HA of H1N1 A/New Caledonia/20/99 (influenza A virus H1N1 A/New …); experiment: ELISA on recombinant or purified HA
[2] = molecular target: T2, HA of H1N1 A/Solomon Islands/3/06 (influenza A virus H1N1 A/Solomon …); experiment: ELISA on recombinant or purified HA
[3] = molecular target: T1, HA of H1N1 A/New Caledonia/20/99; experiment: cell-based or functional assay
[4] = molecular target: T2, HA of H1N1 A/Solomon Islands/3/06; experiment: cell-based or functional assay
HA of H3N2 A/CA/7/04 = HA of H3N2 A/CA/7/04 (influenza A virus H3N2 A/CA/7/04); experiment: cell-based or functional assay
HA of H3N2 A/WI/67/05 = HA of H3N2 A/WI/67/05 (influenza A virus H3N2 A/WI/67/05); experiment: cell-based or functional assay

B1: FI6 variant 3 (antibody, V domains shown)
VH: QVQLVESGGGVVQPGRSLRLSCAASGFTFSTYAMHWVRQAPGKGLEWVAVISYDANYKYYADSVKGRFTISRDNSKNTLYLQMNSLRAEDTAVYYCAKDSQLRSLLYFEWLSQGYFDYWGQGTLVTVSS
VL: not shown
EC50 [1]: 0.017 µg/mL | EC50 [2]: 0.019 µg/mL

B2: FI6 variant 2 (antibody, V domains shown)
VH: QVQLVQSGGGVVQPGRSLRLSCVASGFTFSTYAMHWVRQAPGRGLEWVAVISYDGNYKYYADSVKGRFSISRDNSNNTLHLEMNTLRTEDTALYYCAKDSQLRSLLYFEWLSQGYFDPWGQGTLVTVTS
VL: DIQMTQSPDSLAVSLGARATINCKSSQSVTFNYKNYLAWYQQKPGQPPKVLIYWASARESGVPDRFSGSGSGTDFTLTISSLQAEDVAVYYCQQHYRTPPTFGQGTKVEIK
Neutralization of infectious viruses (IC50, µg/ml) [3]: 6.3 µg/mL | Neutralization of infectious viruses (IC50, µg/ml) [4]: 8.8 µg/mL | Neutralization of infectious viruses (IC50, µg/ml) (HA of H3N2 A/CA/7/04): 7.9 µg/mL | Neutralization of infectious viruses (IC50, µg/ml) (HA of H3N2 A/WI/67/05): 12.5 µg/mL | EC50 [1]: 0.015 µg/mL | EC50 [2]: 0.018 µg/mL

B3: FI28 variant 1 (antibody, V domains shown)
VH: EVQLVESGGGAVQPGESLKLSCAASGFTFSNYGMHWVRQAPGKGLEWVAVISYDGSNKYYADSVKGRFTISRDNSKDTLYLQMNSLRAEDTALFYCAKERPLRLLRYFDWLSGGANDYWGQGTLVTVSS
VL: DIVMTQSPDSLAVSLGERATINCKSSQSVLYSSNNKNYLAWYQQKPGQPPKLLIDWASTRESGVPDRFSGSGSGTDFTLTISNLQVEDVAVYYCQQYYRSPSFGQGTKLEIK
Neutralization of infectious viruses (IC50, µg/ml) [3]: > 100 µg/mL | Neutralization of infectious viruses (IC50, µg/ml) [4]: > 100 µg/mL | Neutralization of infectious viruses (IC50, µg/ml) (HA of H3N2 A/CA/7/04): > 100 µg/mL | Neutralization of infectious viruses (IC50, µg/ml) (HA of H3N2 A/WI/67/05): > 100 µg/mL
